# Measured values: publication PMC6657065
# Key:
# Experiment in all cases: SEC; Superdex-200 on FPLC after TEV removal of the MBP tag; 20 mM NaH2PO4 pH 7.0, 0.3 M NaCl, 1 mM TCEP, 10% glycerol, 0.005% FC-16; 4 °C; mass by regression against gel filtration standards (Bio-Rad); self-association, oligomer size
# [1] = biological target: Bambusa oldhamii cellulose synthase BoCesA1 (Bambusa oldhamii)
# [2] = biological target: Bambusa oldhamii cellulose synthase BoCesA2 (Bambusa oldhamii)
# [3] = biological target: Bambusa oldhamii cellulose synthase BoCesA3 (Bambusa oldhamii)
# [4] = biological target: Bambusa oldhamii cellulose synthase BoCesA4 (Bambusa oldhamii)
# [5] = biological target: Bambusa oldhamii cellulose synthase BoCesA5 (Bambusa oldhamii)
# [6] = biological target: Bambusa oldhamii cellulose synthase BoCesA7 (Bambusa oldhamii)
substance,measurement,setting,value
Bambusa oldhamii cellulose synthase BoCesA1 (enzyme),stoichiometry N,[1],6
Bambusa oldhamii cellulose synthase BoCesA2 (enzyme),stoichiometry N,[2],6
Bambusa oldhamii cellulose synthase BoCesA3 (enzyme),stoichiometry N,[3],6
Bambusa oldhamii cellulose synthase BoCesA4 (enzyme),stoichiometry N,[4],6
Bambusa oldhamii cellulose synthase BoCesA5 (enzyme),stoichiometry N,[5],6
Bambusa oldhamii cellulose synthase BoCesA7 (enzyme),stoichiometry N,[6],6
